Results from US20250262210A1 (TRUSTEES OF COLUMBIA UNIVERSITY IN THE CITY OF NEW YORK, published 2025).

What was measured:
Assay in all cases: IP/MS, LZTR1 R810W-FLAG, U87
[1] = biological target: RNF213 (human, UniProt Q63HN8 1-5207, limits assumed)
Method in brief: (§1)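 Extracted peptides in 3% acetonitrile/0.1% formic acid ran on a 50 cm C18 column into an Orbitrap Fusion, with MaxQuant identification and spectral counting.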

[2] = biological target: CDK5RAP2 (human, UniProt Q96SN8 1-1893, limits assumed)
Method in brief: as §1

[3] = biological target: T1, GTF3C2 (human, UniProt Q8WUA4 1-911, limits assumed)
T1 sequence (looked up): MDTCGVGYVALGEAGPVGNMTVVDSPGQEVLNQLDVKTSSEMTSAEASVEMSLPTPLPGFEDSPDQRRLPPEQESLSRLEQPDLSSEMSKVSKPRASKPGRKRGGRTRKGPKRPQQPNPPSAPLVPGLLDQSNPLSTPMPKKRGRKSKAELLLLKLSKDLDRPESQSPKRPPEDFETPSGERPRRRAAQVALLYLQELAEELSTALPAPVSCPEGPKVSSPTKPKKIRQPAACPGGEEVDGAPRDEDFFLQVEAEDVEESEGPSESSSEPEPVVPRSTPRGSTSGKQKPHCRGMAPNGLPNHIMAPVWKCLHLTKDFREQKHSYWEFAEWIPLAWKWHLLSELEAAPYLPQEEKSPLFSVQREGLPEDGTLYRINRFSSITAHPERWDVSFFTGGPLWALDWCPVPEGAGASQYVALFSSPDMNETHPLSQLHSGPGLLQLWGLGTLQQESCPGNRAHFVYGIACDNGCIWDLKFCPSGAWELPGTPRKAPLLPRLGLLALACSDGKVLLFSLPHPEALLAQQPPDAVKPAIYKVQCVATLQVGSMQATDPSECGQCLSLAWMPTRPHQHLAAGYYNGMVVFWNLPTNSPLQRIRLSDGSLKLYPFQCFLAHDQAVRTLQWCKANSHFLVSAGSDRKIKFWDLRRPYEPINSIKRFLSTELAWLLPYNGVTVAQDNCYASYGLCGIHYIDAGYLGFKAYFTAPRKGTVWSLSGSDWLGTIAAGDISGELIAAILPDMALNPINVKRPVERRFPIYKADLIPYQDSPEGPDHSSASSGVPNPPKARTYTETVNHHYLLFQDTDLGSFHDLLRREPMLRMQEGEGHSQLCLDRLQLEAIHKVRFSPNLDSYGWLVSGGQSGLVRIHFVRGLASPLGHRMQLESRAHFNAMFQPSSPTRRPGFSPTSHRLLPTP
Method in brief: as §1

[4] = biological target: T2, ELP1 (human, UniProt O95163 1-1332)
T2 sequence (looked up): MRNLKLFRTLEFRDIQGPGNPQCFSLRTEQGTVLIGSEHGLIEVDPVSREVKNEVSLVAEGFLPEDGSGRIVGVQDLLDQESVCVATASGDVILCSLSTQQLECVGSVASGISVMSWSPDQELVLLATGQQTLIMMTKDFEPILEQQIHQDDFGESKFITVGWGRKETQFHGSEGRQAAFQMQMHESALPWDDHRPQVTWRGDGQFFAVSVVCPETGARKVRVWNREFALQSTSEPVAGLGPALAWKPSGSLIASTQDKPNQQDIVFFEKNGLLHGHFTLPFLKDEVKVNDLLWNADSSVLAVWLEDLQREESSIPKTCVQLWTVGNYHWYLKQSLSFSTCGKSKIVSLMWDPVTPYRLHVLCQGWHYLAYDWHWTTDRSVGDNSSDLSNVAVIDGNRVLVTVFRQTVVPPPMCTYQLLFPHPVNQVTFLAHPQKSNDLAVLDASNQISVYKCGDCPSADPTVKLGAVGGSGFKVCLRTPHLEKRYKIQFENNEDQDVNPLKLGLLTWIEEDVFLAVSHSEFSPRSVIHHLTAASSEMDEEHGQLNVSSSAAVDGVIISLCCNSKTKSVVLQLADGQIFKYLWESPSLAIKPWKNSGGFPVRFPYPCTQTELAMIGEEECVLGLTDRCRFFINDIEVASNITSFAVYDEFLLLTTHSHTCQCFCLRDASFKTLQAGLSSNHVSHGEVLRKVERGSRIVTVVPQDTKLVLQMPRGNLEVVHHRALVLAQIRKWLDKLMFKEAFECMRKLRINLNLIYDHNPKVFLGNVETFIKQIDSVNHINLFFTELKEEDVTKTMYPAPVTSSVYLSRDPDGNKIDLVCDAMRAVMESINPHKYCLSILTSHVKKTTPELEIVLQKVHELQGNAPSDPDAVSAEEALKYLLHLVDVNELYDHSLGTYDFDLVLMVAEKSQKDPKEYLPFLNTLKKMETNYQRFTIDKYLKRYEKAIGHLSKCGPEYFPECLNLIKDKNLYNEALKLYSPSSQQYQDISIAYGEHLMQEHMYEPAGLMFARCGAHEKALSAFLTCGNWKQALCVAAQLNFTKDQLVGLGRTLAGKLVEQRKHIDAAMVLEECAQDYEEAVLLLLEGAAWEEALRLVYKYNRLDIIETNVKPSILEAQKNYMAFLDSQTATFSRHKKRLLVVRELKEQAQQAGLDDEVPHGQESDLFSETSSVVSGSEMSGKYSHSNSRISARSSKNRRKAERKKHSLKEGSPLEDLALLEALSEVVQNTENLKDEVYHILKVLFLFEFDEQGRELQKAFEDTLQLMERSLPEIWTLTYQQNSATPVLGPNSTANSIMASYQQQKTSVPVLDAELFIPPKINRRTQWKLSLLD
Method in brief: as §1

Measured: binding result

Sequence of RNF213 (Q63HN8 whole entry, the tested form may be a part): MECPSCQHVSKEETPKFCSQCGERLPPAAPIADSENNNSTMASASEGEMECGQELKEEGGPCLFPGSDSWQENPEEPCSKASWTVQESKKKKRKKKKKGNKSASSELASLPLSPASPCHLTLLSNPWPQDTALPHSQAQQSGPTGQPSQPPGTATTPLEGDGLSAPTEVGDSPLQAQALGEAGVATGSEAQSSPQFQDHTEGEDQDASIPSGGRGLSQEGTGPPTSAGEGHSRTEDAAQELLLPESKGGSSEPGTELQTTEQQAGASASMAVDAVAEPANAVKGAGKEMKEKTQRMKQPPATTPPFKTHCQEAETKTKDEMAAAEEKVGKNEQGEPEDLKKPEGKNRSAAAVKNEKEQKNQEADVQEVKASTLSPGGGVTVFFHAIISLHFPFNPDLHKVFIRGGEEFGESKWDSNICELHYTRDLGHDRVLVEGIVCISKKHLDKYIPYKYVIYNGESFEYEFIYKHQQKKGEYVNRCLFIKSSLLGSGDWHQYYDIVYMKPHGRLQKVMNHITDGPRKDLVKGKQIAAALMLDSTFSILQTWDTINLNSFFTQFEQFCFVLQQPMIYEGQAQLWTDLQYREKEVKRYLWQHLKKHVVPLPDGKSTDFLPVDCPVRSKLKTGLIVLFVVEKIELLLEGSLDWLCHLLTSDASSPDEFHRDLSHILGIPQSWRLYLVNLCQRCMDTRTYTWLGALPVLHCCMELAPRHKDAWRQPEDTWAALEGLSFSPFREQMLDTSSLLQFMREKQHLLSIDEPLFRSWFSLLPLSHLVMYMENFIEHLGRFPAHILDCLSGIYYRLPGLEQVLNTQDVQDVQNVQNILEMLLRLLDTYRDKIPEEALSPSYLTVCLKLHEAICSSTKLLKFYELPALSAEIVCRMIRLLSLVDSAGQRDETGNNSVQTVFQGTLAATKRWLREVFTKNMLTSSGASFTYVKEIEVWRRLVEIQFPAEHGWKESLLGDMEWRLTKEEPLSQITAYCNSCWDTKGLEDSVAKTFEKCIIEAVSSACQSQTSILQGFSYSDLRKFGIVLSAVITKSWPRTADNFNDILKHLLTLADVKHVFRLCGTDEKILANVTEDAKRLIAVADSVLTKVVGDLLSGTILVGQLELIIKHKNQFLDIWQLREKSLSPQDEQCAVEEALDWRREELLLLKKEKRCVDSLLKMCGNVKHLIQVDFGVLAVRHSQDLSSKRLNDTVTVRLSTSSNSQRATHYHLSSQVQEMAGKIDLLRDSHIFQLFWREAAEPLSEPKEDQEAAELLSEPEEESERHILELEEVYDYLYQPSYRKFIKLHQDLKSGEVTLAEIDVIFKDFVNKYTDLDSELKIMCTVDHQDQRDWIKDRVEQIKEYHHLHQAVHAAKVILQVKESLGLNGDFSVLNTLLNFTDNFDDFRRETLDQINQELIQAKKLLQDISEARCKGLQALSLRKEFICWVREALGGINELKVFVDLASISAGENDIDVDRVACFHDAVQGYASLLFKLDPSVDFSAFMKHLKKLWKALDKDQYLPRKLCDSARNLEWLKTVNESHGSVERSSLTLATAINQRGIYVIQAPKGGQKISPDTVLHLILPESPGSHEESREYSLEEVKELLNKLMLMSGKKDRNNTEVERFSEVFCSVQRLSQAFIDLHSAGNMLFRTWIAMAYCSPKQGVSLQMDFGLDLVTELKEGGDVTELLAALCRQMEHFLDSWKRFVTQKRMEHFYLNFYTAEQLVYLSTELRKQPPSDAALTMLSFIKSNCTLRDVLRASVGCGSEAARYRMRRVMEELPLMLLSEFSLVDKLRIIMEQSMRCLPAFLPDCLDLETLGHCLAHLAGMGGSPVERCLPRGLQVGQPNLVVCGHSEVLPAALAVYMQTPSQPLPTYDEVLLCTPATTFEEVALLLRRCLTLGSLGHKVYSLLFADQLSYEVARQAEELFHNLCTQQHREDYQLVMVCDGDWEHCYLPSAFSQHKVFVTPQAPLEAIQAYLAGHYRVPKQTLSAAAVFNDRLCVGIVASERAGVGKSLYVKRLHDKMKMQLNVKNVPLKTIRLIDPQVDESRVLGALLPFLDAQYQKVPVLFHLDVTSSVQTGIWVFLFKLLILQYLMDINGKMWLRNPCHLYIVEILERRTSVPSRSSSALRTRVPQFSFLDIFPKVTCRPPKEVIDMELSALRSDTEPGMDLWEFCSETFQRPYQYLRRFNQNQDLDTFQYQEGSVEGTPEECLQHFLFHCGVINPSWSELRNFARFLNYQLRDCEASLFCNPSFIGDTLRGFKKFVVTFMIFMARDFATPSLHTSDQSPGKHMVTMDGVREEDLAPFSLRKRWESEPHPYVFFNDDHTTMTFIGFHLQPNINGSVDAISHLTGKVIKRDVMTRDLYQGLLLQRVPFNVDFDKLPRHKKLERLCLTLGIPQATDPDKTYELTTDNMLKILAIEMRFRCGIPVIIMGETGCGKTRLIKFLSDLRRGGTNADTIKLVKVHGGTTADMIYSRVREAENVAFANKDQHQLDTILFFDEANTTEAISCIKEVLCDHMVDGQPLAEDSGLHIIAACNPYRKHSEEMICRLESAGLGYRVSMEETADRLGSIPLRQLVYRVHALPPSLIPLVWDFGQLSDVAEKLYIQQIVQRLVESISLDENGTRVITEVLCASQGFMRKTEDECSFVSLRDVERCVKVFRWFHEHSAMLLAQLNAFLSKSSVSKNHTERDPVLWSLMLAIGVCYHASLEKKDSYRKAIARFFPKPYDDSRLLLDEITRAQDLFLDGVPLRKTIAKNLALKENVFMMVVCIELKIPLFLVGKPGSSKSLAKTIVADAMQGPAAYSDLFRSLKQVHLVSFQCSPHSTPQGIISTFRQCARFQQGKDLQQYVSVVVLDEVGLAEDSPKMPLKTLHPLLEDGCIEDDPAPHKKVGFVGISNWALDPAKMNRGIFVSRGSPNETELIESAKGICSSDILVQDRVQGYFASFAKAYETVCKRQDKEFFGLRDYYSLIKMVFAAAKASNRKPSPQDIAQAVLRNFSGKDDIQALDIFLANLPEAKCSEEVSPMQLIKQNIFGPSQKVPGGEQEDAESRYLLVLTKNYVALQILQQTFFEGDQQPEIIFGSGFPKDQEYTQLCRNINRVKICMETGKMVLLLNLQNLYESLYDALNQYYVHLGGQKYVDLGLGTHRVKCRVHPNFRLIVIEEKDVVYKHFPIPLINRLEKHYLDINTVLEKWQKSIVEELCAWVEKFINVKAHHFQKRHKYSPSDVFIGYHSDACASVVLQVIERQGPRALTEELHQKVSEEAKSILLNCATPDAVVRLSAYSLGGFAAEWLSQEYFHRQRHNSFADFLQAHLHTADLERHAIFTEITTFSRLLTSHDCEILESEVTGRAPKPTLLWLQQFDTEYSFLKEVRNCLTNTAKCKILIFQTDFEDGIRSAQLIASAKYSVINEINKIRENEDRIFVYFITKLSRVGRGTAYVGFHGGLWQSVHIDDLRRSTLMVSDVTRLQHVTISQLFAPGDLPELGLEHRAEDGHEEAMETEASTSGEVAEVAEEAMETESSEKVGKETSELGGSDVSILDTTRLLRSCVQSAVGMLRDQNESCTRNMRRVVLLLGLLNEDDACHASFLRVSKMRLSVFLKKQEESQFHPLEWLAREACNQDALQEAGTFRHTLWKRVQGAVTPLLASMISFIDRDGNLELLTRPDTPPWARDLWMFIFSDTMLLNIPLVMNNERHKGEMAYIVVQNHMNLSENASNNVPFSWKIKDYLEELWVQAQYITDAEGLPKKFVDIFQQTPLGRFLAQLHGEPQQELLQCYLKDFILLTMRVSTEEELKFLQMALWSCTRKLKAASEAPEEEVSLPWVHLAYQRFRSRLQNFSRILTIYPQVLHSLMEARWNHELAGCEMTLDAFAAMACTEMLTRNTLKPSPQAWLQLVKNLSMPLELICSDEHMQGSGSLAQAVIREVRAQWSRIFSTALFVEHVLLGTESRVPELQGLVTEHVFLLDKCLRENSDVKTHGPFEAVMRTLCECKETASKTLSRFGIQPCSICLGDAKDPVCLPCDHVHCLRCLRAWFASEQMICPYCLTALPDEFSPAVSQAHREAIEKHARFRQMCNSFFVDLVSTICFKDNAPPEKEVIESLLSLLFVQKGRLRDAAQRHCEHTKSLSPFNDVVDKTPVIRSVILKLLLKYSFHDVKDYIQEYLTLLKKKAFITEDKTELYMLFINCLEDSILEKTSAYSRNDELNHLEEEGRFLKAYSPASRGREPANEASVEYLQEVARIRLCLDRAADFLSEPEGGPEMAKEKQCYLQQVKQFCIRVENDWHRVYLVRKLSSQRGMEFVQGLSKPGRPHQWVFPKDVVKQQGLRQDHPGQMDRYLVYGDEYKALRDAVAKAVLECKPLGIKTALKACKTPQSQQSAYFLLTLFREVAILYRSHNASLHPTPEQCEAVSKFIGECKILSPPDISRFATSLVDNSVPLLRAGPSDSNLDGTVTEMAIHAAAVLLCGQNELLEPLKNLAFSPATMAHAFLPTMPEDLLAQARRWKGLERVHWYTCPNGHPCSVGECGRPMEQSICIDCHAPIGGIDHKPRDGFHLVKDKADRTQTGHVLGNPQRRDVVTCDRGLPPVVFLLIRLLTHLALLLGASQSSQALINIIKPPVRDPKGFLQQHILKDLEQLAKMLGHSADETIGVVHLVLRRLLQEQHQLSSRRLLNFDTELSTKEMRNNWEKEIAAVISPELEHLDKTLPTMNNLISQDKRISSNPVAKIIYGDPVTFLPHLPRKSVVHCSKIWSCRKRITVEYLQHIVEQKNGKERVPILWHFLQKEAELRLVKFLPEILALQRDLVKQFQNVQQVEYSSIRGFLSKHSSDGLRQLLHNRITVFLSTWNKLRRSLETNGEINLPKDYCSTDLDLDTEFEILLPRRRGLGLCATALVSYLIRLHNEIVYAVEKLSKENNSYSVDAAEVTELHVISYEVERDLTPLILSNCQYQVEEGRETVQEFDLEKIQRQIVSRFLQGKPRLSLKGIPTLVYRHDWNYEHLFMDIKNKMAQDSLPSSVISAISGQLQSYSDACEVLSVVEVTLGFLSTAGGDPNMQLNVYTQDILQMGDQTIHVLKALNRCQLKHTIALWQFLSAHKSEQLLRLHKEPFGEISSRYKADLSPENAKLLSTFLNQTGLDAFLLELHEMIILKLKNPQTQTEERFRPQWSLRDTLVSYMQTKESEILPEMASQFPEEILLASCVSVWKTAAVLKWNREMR

B1: LZTR1 R810W-FLAG (other, human, UniProt Q8N653 1-840, looked up)
chain: MAGPGSTGGQIGAAALAGGARSKVAPSVDFDHSCSDSVEYLTLNFGPFETVHRWRRLPPCDEFVGARRSKHTVVAYKDAIYVFGGDNGKTMLNDLLRFDVKDCSWCRAFTTGTPPAPRYHHSAVVYGSSMFVFGGYTGDIYSNSNLKNKNDLFEYKFATGQWTEWKIEGRLPVARSAHGATVYSDKLWIFAGYDGNARLNDMWTIGLQDRELTCWEEVAQSGEIPPSCCNFPVAVCRDKMFVFSGQSGAKITNNLFQFEFKDKTWTRIPTEHLLRGSPPPPQRRYGHTMVAFDRHLYVFGGAADNTLPNELHCYDVDFQTWEVVQPSSDSEVGGAEVPERACASEEVPTLTYEERVGFKKSRDVFGLDFGTTSAKQPTQPASELPSGRLFHAAAVISDAMYIFGGTVDNNIRSGEMYRFQFSCYPKCTLHEDYGRLWESRQFCDVEFVLGEKEECVQGHVAIVTARSRWLRRKITQARERLAQKLEQEAAPVPREAPGVAAGGARPPLLHVAIREAEARPFEVLMQFLYTDKIKYPRKGHVEDVLLIMDVYKLALSFQLCRLEQLCRQYIEASVDLQNVLVVCESAARLQLSQLKEHCLNFVVKESHFNQVIMMKEFERLSSPLIVEIVRRKQQPPPRTPLDQPVDIGTSLIQDMKAYLEGAGAEFCDITLLLDGHPRPAHKAILAARSSYFEAMFRSFMPEDGQVNISIGEMVPSRQAFESMLRYIYYGEVNMPPEDSLYLFAAPYYYGFYNNRLQAYCKQNLEMNVTVQNVLQILEAADKTQALDMKRHCLHIIVHQFTKVSKLPTLWSLSQQLLLDIIDSLASHISDKQCAELGADI
notes: Stably expressed in U87 cells by lentivirus; also called LZTR1-FLAG-R810W; LZTR1 RW; not shown: FLAG tag
binds: all assays above
